Patent US20210355194A1 (TWIST BIOSCIENCE, published 2021)

B1: variant 5-63 (Fc fusion)
VHH: EVQLVESGGGLVQPGGSLRLSCAASGFSLDYYDMGWFRQAPGKEREFVAALGWSGGSTDYADSVKGRFTISADNSKNTAYLQMNSLKPEDTAVYYCAAGNGGRYGIVERWGQGTLVTVSS
B2: variant 6-44 (Fc fusion)
VHH: EVQLVESGGGLVQPGGSLRLSCAASGGTFGVYHMGWFRQAPGKEREFIGRITWTDGSTYYADSVKGRFTISADNSKNTAYLQMNSLKPEDTAVYYCFGLLEVYDMTFDYWGQGTLVTVSS
B3: variant 6-43 (Fc fusion)
VHH: EVQLVESGGGLVQPGGSLRLSCAASGRTFSSYAMMGWFRQAPGKEREFVASVNWDASQINYADSVKGRFTISADNSKNTAYLQMNSLKPEDTAVYYCTTLGAVYFDSSGYHDYFDYWGQGTLVTVSS
B4: variant 6-45 (Fc fusion)
VHH: EVQLVESGGGLVQPGGSLRLSCAASGNMFSINAMGWFRQAPGKEREFVTLISWSSGRTSYADSVKGRFTISADNSKNTAYLQMNSLKPEDTAVYYCASLGYCSGGSCFDYWGQGTLVTVSS
B5: variant 6-42 (Fc fusion)
VHH: EVQLVESGGGLVQPGGSLRLSCAASGDTYGSYWMGWFRQAPGKEREFVAVITSGGSTNYADSVKGRFTISADNSKNTAYLQMNSLKPEDTAVYYCTHVQNSYYYAMDVWGQGTLVTVSS
B6: variant 6-26 (Fc fusion)
VHH: EVQLVESGGGLVQPGGSLRLSCAASGDTFSTSWMGWFRQAPGKEREFVATINTGGGTNYADSVKGRFTISADNSKNTAYLQMNSLKPEDTAVYYCARVTTSFDYWGQGTLVTVSS
B7: variant 6-30 (Fc fusion)
VHH: EVQLVESGGGLVQPGGSLRLSCAASGFAFGDSWMGWFRQAPGKEREFVATINWSGVTAYADSVKGRFTISADNSKNTAYLQMNSLKPEDTAVYYCARADGYFDYWGQGTLVTVSS
B8: variant 6-77 (Fc fusion)
VHH: EVQLVESGGGLVQPGGSLRLSCAASGFTFDRSWMGWFRQAPGKEREFVAAVTEGGTTSYADSVKGRFTISADNSKNTAYLQMNSLKPEDTAVYYCARADYDFDYWGQGTLVTVSS
B9: variant 5-1 (Fc fusion)
VHH: EVQLVESGGGLVQPGGSLRLSCAASGGTFSSIGMGWFRQAPGKEREFVAAISWDGGATAYADSVKGRFTISADNSKNTAYLQMNSLKPEDTAVYYCAKEDVGKPFDWGQGTLVTVSS
B10: variant 6-6 (Fc fusion)
VHH: EVQLVESGGGLVQPGGSLRLSCAASGTTLDYYAMGWFRQAPGKERELVAAISWSGGSTAYADSVKGRFTISADNSKNTAYLQMNSLKPEDTAVYYCAREDYYDSSGYSWGQGTLVTVSS
B11: variant 6-82 (Fc fusion)
VHH: EVQLVESGGGLVQPGGSLRLSCAASGSSLDAYGMGWFRQAPGKEREFVAAISWGGGSIYYADSVKGRFTISADNSKNTAYLQMNSLKPEDTAVYYCARLSQGMVALDYWGQGTLVTVSS
B12: variant 5-20 (Fc fusion)
VHH: EVQLVESGGGLVQPGGSLRLSCAASGRTIVPYTMGWFRQAPGKERELVAAISPSAFTEYADSVKGRFTISADNSKNTAYLQMNSLKPEDTAVYYCAARRWGYDWGQGTLVTVSS
B13: variant 6-39 (Fc fusion)
VHH: EVQLVESGGGLVQPGGSLRLSCAASGFTFSPSWMGWFRQAPGKEREFVAAISWSGGSTAYADSVKGRFTISADNSKNTAYLQMNSLKPEDTAVYYCHGLGEGDPYGDYEGYFDLWGQGTLVTVSS
B14: variant 6-76 (Fc fusion)
VHH: EVQLVESGGGLVQPGGSLRLSCAASGLAFDFDGMGWFRQAPGKEREGVAAINSGGSTYYADSVKGRFTISADNSKNTAYLQMNSLKPEDTAVYYCARFFRAHDYWGQGTLVTVSS
notes: VHH-Fc
B15: variant 6-73 (Fc fusion)
VHH: EVQLVESGGGLVQPGGSLRLSCAASGHTFSGYAMGWFRQAPGKEREFVAVITREGSTYYADSVKGRFTISADNSKNTAYLQMNSLKPEDTAVYYCARLGGEGFDYWGQGTLVTVSS
notes: VHH-Fc
B16: variant 6-67 (Fc fusion)
VHH: EVQLVESGGGLVQPGGSLRLSCAASGSFSNYAMGWFRQAPGKEREFVAAISSSGALTSYADSVKGRFTISADNSKNTAYLQMNSLKPEDTAVYYCWIVGPGPLDGMDVWGQGTLVTVSS
B17: variant 6-78 (Fc fusion)
VHH: EVQLVESGGGLVQPGGSLRLSCAASGRTYDAMGWFRQAPGKEREFVASVTSGGYTHYADSVKGRFTISADNSKNTAYLQMNSLKPEDTAVYYCAKFGRKIVGATELDYWGQGTLVTVSS
notes: VHH-Fc
B18: variant 6-106 (Fc fusion)
VHH: EVQLVESGGGLVQPGGSLRLSCAASGIPSTLRAMGWFRQAPGKEREFVAATSWSGGSKYYADSVKGRFTISADNSKNTAYLQMNSLKPEDTAVYYCATDLYYMDVWGQGTLVTVSS
B19: variant 6-102 (Fc fusion)
VHH: EVQLVESGGGLVQPGGSLRLSCAASGSSFSAYAMGWFRQAPGKEREFVSAIDSEGTTTYADSVKGRFTISADNSKNTAYLQMNSLKPEDTAVYYCAGDYNFWSGFDHWGQGTLVTVSS
B20: variant 6-74 (Fc fusion)
VHH: EVQLVESGGGLVQPGGSLRLSCAASGFAFGDSWMGWFRQAPGKERELVAAITSGGSTDYADSVKGRFTISADNSKNTAYLQMNSLKPEDTAVYYCARGLLWFGELFGYWGQGTLVTVSS
B21: variant 6-108 (Fc fusion)
VHH: EVQLVESGGGLVQPGGSLRLSCAASGGTFGSYGMGWFRQAPGKEREFVAAIRWSGGITYYADSVKGRFTISADNSKNTAYLQMNSLKPEDTAVYYCARERYWNPLPYYYYGMDVWGQGTLVTVSS
B22: variant 6-68 (Fc fusion)
VHH: EVQLVESGGGLVQPGGSLRLSCAASGFTLSDRAMGWFRQAPGKEREYVAHITAGGLSNYADSVKGRFTISADNSKNTAYLQMNSLKPEDTAVYYCVHLASQTGAGYFDLWGQGTLVTVSS
B23: variant 6-95 (Fc fusion)
VHH: EVQLVESGGGLVQPGGSLRLSCAASGIPSSIRAMGWFRQAPGKEREFVAVIRWTGGSTYYADSVKGRFTISADNSKNTAYLQMNSLKPEDTAVYYCARDIGYYDSSGYYNDGGFDYWGQGTLVTVSS
B24: variant 6-103 (Fc fusion)
VHH: EVQLVESGGGLVQPGGSLRLSCAASGRTSSPIAMGWFRQAPGKEREPVAVRWSDDYTYYADSVKGRFTISADNSKNTAYLQMNSLKPEDTAVYYCAKKLGGYYAFDIWGQGTLVTVSS
B25: variant 6-82 (Fc fusion)
VHH: EVQLVESGGGLVQPGGSLRLSCAASGSSLDAYGMGWFRQAPGKEREFVAAISWGGGSIYYADSVKGRFTISADNSKNTAYLQMNSLKPEDTAVYYCARLSQGMVALDYWGQGTLVTVSS
B26: variant 6-72 (Fc fusion)
VHH: EVQLVESGGGLVQPGGSLRLSCAASGSTLSINAMGWFRQAPGKEREFVAAIDWSGGSTAYADSVKGRFTISADNSKNTAYLQMNSLKPEDTAVYYCARDSSATRTGPDYWGQGTLVTVSS
B27: variant 6-99 (Fc fusion)
VHH: EVQLVESGGGLVQPGGSLRLSCAASGIPFRSRTMGWFRQAPGKEREFVAGISRSGASTAYADSVKGRFTISADNSKNTAYLQMNSLKPEDTAVYYCTHANDYGDYWGQGTLVTVSS
B28: variant 6-112 (Fc fusion)
VHH: EVQLVESGGGLVQPGGSLRLSCAASGGTFSAYHMGWFRQAPGKERELVTIIDNGGPTSYADSVKGRFTISADNSKNTAYLQMNSLKPEDTAVYYCTALLYYFDNSGYNFDPFDIWGQGTLVTGSS
B29: variant 6-90 (Fc fusion)
VHH: EVQLVESGGGLVQPGGSLRLSCAASGFPFSIWPMGWFRQAPGKEREFVAAVRWSSTYYADSVKGRFTISADNSKNTAYLQMNSLKPEDTAVYYCATGECDGGSCSLAYWGQGTLVTVSS
B30: variant 6-75 (Fc fusion)
VHH: EVQLVESGGGLVQPGGSLRLSCAASGGTFSTYWMGWFRQAPGKEREFVAAISRSGGNTYYADSVKGRFTISADNSKNTAYLQMNSLKPEDTAVYYCVRHSGTDGDSSFDYWGQGTLVTVSS
B31: variant 6-71 (Fc fusion)
VHH: EVQLVESGGGLVQPGGSLRLSCAASGITFSNDAMGWFRQAPGKEREFVAIITSSDTNDTTNYADSVKGRFTISADNSKNTAYLQMNSLKPEDTAVYYCARLHYYDSSGYFDYWGQGTLVTVSS
B32: variant 6-70 (Fc fusion)
VHH: EVQLVESGGGLVQPGGSLRLSCAASGFNLDDYADMGWFRQAPGKEREFVAAIGWGGGSTRYADSVKGRFTISADNSKNTAYLQMNSLKPEDTAVYYCAREILWFGEFGEPNVWGQGTLVTVSS
B33: variant 6-97 (Fc fusion)
VHH: EVQLVESGGGLVQPGGSLRLSCAASGFTFSSLAMGWFRQAPGKEREFVAAITWSGDITNYADSVKGRFTITADNSKNTAYLQMNSLKPEDTAVYYCLRLSSSGFDHWGQGTLVTVSS
B34: variant 6-84 (Fc fusion)
VHH: EVQLVESGGGLVQPGGSLRLSCAASGFTPDDYAMGWFRQAPGKEREFVAAINSGGSYTYYADSVKGRFTISADNSKNTAYLQMNSLKPEDTAVYYCARDRGPWGQGTLVTVSS

molecular target: CV S-protein construct 6 trimer TP31001F (SARS-CoV-2, UniProt P0DTC2 14-1208); assay: SPR

Binder | Kd [nM]
B1 | 0.4
B2 | 0.9
B3 | 0.7
B4 | 1.3
B5 | 7.8
B6 | 0.07
B7 | 0.1
B8 | 3.5
B9 | 0.4
B10 | 67.7
B11 | 0.6
B12 | 1.1
B13 | 0.1

molecular target: CV S-protein construct 6 trimer TP31001F (SARS-CoV-2, UniProt P0DTC2 14-1208); assay: SPR; remark: another data set of the same source

Binder | Kd [nM]
B14 | 1.8
B15 | 0.5
B16 | 0.1
B17 | 0.4
B18 | 1070
B19 | 0.9
B20 | 498
B21 | 0.3
B22 | 0.7
B23 | 7.6
B24 | 1
B25 | 0.6
B26 | 2
B27 | 3.4
B28 | 43.8
B29 | 17.1
B30 | 1
B31 | 0.6
B32 | 1.1
B33 | 57.9
B34 | 0.7
